Results published in the nanobody polyreactivity screen of Harvey et al. (2022).

Assay: yeast display, Sf9 membrane polyspecificity reagent, FACS + sequencing; frameworks hold sequencing errors
How it was run: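 Polyreactivity labels are assigned by the sorting gate from which each nanobody was recovered. The gates were low and high (top ~1%), set on anti-HA fluorescence for expression and streptavidin fluorescence for reagent binding. Before sorting, galactose-induced (36–48 hours) yeast display cells were stained for 1 hour at 4 °C with 10% biotinylated, detergent-solubilized Sf9 membrane reagent.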

Sequence	polyreactivity (PSR sort gate)
QVQLVESGGGLVQAGGSLRLSCAASGSIFKQYAMGWYRQAPGKERELVARITGSGGSTYYADSVKGRFTISRDNAKNTVYLQMNSLKPEDTAVYYCATKRYARSSGGYDYWGQGTQVTVSS	low polyreactivity
QVQLVESGGGLVQAGGSLRLSCAASGSIFKRYAMGWYRHAPGKERELVAAISYSGGSTNYADSVKGRFTISRDNAKNTVYLQMNSLKPEDTAVYYCAKRSTSRGYDYWGQGTQVTVSS	high polyreactivity
QVQLVESGGGLVQAGGSLRLSCAASGSIFKRYAMGWYRQAPGKERELVASISSRGSSTNYADSVKGRFTISRDNAKNTVYLQMNSLKPEDTAVYYCAAEVYRGKYWSTYRGGDYWGQGTQVTVSS	high polyreactivity
QVQLVESGGGLVQAGGSLRLSCAASGSIFKTNAMGWYRQAPGKERELVAAITGSGGSTYYADSVKGRFTISRDNAKNTVYLQMNSLKPEDTAVYYCAKRSYRPILRWSYDYWGQGTQVTVSS	low polyreactivity
QVQLVESGGGLVQAGGSLRLSCAASGSIFKTYAMGWNRQAPGKEREFVARITSSGGRTYYADSVKGRFTISRDNAKNTVYLQMNSLKPEDTAVYYCAKPYPRGYTTYSYDYWGQGTQVTVSS	high polyreactivity
QVQLVESGGGLVQAGGSLRLSCAASGSIFKVYAMGWYRQAPGKEREIVAAITSSDSNTNYADSVKGRFTISRDNEKNTVYLQMNSLKPEDTAVYYCNARIYTRRYVPHYGFNYWGQGTQVTVSS	low polyreactivity
QVQLVESGGGLVQAGGSLRLSCAASGSIFKVYAMGWYRQAPGKERELVATISGSGGSTYYADSVKGRFTISRDNAKKTVYLQMNSLKPEDTAVYYCAADAGYAFAVGGGWVEALYDYWGQGTQVTVSS	low polyreactivity
QVQLVESGGGLVQAGGSLRLSCAASGSIFKWNDMGWYRQSPGKERELVAAITWSGGRTYYADSVKGRFTISRDNAKNTVYLQMNSLKPEDTAVYYCAATQYRSDGWRYDYWGQGTQVTVSS	high polyreactivity
QVQLVESGGGLVQAGGSLRLSCAASGSIFKYNAMGWYRQAPGKEREFVAAISSSSGNTYYADSVKGRFTISRDNAKNSVYIQMNSLKPEDTAVYYCAARTFAYRRGWFGYWGQGTQVTVSS	high polyreactivity
QVQLVESGGGLVQAGGSLRLSCAASGSIFKYNAMGWYRQAPGKERELVAAITYSGGSTYYADSVKGRFTISRDNAKNTVYLQMNSLKPEDTAVYYCNAYRRFSAFDYWGQGTQVTVSS	high polyreactivity
QVQLVESGGGLVQAGGSLRLSCAASGSIFKYNAMGWYRQAPGKERELVATITSSGSTTYYADSVKGRFTISRDNAKYTVYLQMNSLKPEDTAVYYCNARYSYRRDYWGQGTEVTVSS	high polyreactivity
QVQLVESGGGLVQAGGSLRLSCAASGSIFKYNTMGWYIQAPGKERELVATISGGGRTYYADSVKGRFTISRDNAKNTVYLQMNSLKPEDTAVYYCAARKRGTFTYDYWGQGTQVTVSS	high polyreactivity
QVQLVESGGGLVQAGGSLRLSCAASGSIFKYNTMGWYRQAPGKERELVAAISSGGRTYYADSVKGRFTISRDNAKNSVYLQMNSLKPEDTAVYYCAARWSFFKTTHRNNYWGQGTQVTVSS	high polyreactivity
QVQLVESGGGLVQAGGSLRLSCAASGSIFKYYAMGWYRQAPGKERELVAAIDWSGGNTYADSVKGRFTISRDNAKNTVYLQMNSLKPEDTAVYYCAADAFAVYRITSYNGSDSWGQGTQVTVSS	high polyreactivity
QVQLVESGGGLVQAGGSLRLSCAASGSIFKYYAMGWYRQAPGKERELVAAISFSGGSTYYADSVKGRFTISRDNAKNTVYLQMNSLKPEDTAVYYCAVLGVWGYGYWGQGTQVTVSS	high polyreactivity
QVQLVESGGGLVQAGGSLRLSCAASGSIFKYYAMGWYRQAPGKERELVAAISSGGRTYYADSVKGRFTISRDNAKNTVYLQMNSLKPEDTAVYYCNRGTVNSWARGYWGQGTQVTVSS	high polyreactivity
QVQLVESGGGLVQAGGSLRLSCAASGSIFKYYAMGWYRQAPGKERELVAAISYSGGRTYYADSVKGRFTISRDNAKNTVYLQMNSLKPEDTAVYYCNAELYPWPGVVRYNYWGQGTQVTVSS	high polyreactivity
